From patent publication US20210355178A1 (UNIVERSIT T ULM, published 2021) come the findings set out here.

Experiment [1] concerns the target T1, complement factor C3b (UniProt P01024 23-667; P01024 749-1663). In words: SPR, C3b amine-coupled (5610 RU), DAF-Fc as analyte. As for the experimental part:
2600 RU of Bb were deposited by standard amine coupling onto a carboxymethyldextran sensorchip. Running buffer was PBS supplemented with 1 mM MgCl2 and 0.005% Tween 20. […] 5610 RU of C3b were deposited by standard amine coupling onto a carboxymethyldextran sensorchip. Running buffer was PBS supplemented with 1 mM MgCl2 and 0.005% Tween 20.

The target in experiment [2] is T1, complement factor C3b. In words: SPR, C3b amine-coupled (4030 RU), 1:1 steady-state affinity fit. The source says: FIG. 3: C3b binding activity of miniFH and Fc-fusion variants of miniFH. Surface plasmon resonance (SPR) sensorgrams for C3b binding of miniFH (A), miniFH-Fc (C), Fc-miniFH (E) and Fc-miniFH-short (G) (assayed at a concentration range as specified; 4030 RU of C3b were deposited by amine). (B) Respective concentration response plots with fitted affinity (1:1 steady-state affinity fit) for C3b binding of miniFH (B), miniFH-Fc (D), Fc-miniFH (F) and Fc-miniFH-short (H) are shown. The affinity equilibrium constant is stated in the panes.
Surface plasmon resonance experiments were performed at 25° C. on a Reichert SR7500DC SPR instrument in PBS containing 0.005% Tween20 at a flow of 25 μl/min. 4030 response units (RU) of C3b were immobilized onto a carboxymethyldextran (CMD) 500 sensor chip (Xantec) and binding to amine coupled C3b was assayed. The analytes were injected at the indicated concentrations. To probe binding, a concentration series of miniFH or Fc fusions of miniFH were injected (at 25 μl/min for 2.5 min) followed by buffer flow for 300 s and a regeneration step consisting of an injection of 1 M NaCl for 30 s. The highest concentration of each series was injected twice to assess reproducibility. […]
On the technique in general: SPR reads the build-up and loss of mass on a sensor chip optically.

T1 sequence (P01024 23-667 limits assumed, chain 1 of 2): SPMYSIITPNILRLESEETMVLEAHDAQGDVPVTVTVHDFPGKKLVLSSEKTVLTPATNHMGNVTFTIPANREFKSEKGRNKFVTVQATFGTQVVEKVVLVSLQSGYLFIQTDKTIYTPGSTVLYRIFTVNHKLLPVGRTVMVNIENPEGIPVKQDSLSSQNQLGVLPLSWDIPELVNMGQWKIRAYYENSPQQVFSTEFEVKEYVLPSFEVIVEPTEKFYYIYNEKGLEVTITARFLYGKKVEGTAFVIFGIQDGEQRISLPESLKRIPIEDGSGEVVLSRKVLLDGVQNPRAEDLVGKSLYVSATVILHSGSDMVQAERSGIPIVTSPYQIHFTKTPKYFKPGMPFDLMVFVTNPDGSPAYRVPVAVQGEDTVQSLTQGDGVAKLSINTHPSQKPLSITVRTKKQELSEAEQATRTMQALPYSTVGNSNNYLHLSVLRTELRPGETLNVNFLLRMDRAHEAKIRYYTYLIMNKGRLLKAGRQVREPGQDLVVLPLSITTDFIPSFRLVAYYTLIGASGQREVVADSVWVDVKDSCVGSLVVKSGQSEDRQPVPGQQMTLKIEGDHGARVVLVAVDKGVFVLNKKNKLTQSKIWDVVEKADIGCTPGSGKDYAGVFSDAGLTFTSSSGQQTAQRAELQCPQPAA
T1 sequence (P01024 749-1663 limits assumed, chain 2 of 2): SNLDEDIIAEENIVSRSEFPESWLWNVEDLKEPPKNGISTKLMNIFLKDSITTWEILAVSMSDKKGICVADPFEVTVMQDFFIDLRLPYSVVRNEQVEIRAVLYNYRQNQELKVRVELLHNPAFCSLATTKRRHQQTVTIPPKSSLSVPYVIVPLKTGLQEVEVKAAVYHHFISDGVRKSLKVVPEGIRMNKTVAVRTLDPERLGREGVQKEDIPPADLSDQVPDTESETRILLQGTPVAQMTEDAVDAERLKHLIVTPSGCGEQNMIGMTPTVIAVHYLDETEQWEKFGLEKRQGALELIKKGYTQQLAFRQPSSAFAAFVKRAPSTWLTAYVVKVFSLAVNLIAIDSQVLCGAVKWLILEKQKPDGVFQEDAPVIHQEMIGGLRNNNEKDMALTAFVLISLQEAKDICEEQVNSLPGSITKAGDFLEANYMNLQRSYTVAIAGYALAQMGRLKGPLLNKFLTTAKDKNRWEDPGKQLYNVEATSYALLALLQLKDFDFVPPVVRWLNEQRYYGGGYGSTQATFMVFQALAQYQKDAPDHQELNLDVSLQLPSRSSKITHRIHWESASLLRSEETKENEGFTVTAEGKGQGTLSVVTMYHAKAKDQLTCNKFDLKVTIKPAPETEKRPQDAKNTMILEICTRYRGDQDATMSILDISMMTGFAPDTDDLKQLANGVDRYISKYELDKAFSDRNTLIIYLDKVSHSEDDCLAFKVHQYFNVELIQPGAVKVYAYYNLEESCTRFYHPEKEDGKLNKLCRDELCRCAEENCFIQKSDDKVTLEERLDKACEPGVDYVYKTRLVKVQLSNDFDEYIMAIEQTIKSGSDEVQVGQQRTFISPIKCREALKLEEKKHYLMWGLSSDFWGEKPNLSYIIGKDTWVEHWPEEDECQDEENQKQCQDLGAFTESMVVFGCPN

B1: DAF-Fc (Fc fusion)
chain: DCGLPPDVPNAQPALEGRTSFPEDTVITYKCEESFVKIPGEKDSVICLKGSQWSDIEEFCNRSCEVPTRLNSASLKQPYITQNYFPVGTVVEYECRPGYRREPSLSPKLTCLQNLKWSTAVEFCKKKSCPNPGEIRNGQIDVPGGILFGATISFSCNTGYKLFGSTSSFCLISGSSVQWSDPLPECREIYCPAPPQIDNGIIQGERDHYGYRQSVTYACNKGFTMIGEHSIYCTVNNDEGEWSGPPPECRGGGGGGPGCPAPELLGGPSVFLFPPKPKDTLMISRTPEVTCVVVDVSHEDPEVKFNWYVDGVEVHNAKTKPREEQYQSTYRVVSVLTVLHQDWLNGKEYKCKVSNKALPAPIEKTISKAKGQPREPQVYTLPPSREEMTKNQVSLTCLVKGFYPSDIAVEWESNGQPENNYKTTPPVLDSDGSFFLYSKLTVDKSRWQQGNVFSCSVMHEALHNHYTQKSLSLSPGGGGGGG
notes: not shown: Fc module at the C-terminus
For B1, the binding result in experiment [1] is listed as “no binding”.

B2: miniFH-Fc (Fc fusion)
chain: EDCNELPPRRNTEILTGSWSDQTYPEGTQAIYKCRPGYRSLGNIIMVCRKGEWVALNPLRKCQKRPCGHPGDTPFGTFTLTGGNVFEYGVKAVYTCNEGYQLLGEINYRECDTDGWTNDIPICEVVKCLPVTAPENGKIVSSAMEPDREYHFGQAVRFVCNSGYKIEGDEEMHCSDDGFWSKEKPKCVEISCKSPDVINGSPISQKIIYKENERFQYKCNMGYEYSERGDAVCTESGWRPLPSCEEAGGGGGGGGGGGGGKCGPPPPIDNGDITSFPLSVYAPASSVEYQCQNLYQLEGNKRITCRNGQWSEPPKCLHPCVISREIMENYNIALRWTAKQKLYSRTGESVEFVCKRGYRLSSRSHTLRTTCWDGKLEYPTCAGPGGGGGPGCPAPELLGGPSVFLFPPKPKDTLMISRTPEVTCVVVDVSHEDPEVKFNWYVDGVEVHNAKTKPREEQYQSTYRVVSVLTVLHQDWLNGKEYKCKVSNKALPAPIEKTISKAKGQPREPQVYTLPPSREEMTKNQVSLTCLVKGFYPSDIAVEWESNGQPENNYKTTPPVLDSDGSFFLYSKLTVDKSRWQQGNVFSCSVMHEALHNHYTQKSLSLSPGGGGGGG
notes: Produced in Pichia pastoris
As for B2, the “fold increased affinity over miniFH” value in experiment [2] was approximately 2 fold.
